# Measurements published in patent publication US20250345451A1.
# How the values were obtained:
# [1] = biological target: Human TGF-β1 (acrobiosystems, TG1-H421) (human) (UniProt P01137)
# [2] = biological target: Human TGF-β1 (acrobiosystems, TG1-H421) (human) (UniProt P01137); assay: ELISA on coated human TGF-β1, anti-human Fc-HRP, absorbance at 450 nm (top panel)
# [3] = biological target: human PD-L1 on CHO-hPD-L1 cells (human) (UniProt Q9NZQ7); assay: flow cytometry on CHO cells overexpressing human PD-L1, median fluorescence intensity PE-A
# Sequence of human PD-L1 on CHO-hPD-L1 cells (human) (Q9NZQ7 19-290): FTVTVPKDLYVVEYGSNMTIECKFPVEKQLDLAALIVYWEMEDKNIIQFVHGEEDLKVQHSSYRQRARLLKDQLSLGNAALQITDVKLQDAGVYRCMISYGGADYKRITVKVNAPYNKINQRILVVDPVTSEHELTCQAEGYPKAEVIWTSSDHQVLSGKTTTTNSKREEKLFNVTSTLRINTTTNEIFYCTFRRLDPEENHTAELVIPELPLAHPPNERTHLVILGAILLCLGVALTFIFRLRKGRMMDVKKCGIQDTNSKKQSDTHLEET
# [4] = biological target: Human TGF-β3 (PeproTech, 100-36E) (human) (UniProt P10600); assay: ELISA on coated human TGF-β3, anti-human Fc-HRP, absorbance at 450 nm (bottom panel)
# Sequence of Human TGF-β3 (PeproTech, 100-36E) (human) (P10600 301-412 limits assumed): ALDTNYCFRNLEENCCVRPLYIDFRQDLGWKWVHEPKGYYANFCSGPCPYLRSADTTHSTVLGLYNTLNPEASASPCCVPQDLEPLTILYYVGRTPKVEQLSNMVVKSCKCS
# [5] = biological target: biotinylated human PD-L1 protein (purchased from AcroBiosystems) (human) (UniProt Q9NZQ7); assay: blocking assay by flow cytometry: PD-L1 protein pre-incubated with the sample, binding to human PD-1 on CHO-hPD-1 cells
# Sequence of biotinylated human PD-L1 protein (purchased from AcroBiosystems) (human) (Q9NZQ7 19-238 limits assumed): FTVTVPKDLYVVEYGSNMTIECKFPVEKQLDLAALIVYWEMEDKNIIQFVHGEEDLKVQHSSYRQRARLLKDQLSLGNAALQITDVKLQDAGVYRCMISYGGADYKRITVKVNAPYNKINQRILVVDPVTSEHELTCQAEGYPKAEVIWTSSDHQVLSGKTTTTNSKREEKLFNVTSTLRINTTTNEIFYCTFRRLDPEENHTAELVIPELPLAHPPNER
# [6] = biological target: human PD-L1 on CHO-hPD-L1 cells (human) (UniProt Q9NZQ7); assay: flow cytometry on CHO-hPD-L1 cells, PE anti-human IgG-Fc; table under the lower panel prints no unit, concentration axis is in nM
# Sequence of Human TGF-β1 (acrobiosystems, TG1-H421) (human) (P01137 279-390 limits assumed): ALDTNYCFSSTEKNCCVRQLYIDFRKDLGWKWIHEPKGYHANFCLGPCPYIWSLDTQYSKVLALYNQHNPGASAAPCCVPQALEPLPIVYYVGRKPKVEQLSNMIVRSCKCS
IC50 (read off the curve) [1],EC50 (read off the curve) [2],EC50 (read off the curve) [3],EC50 (read off the curve) [4],IC50 (read off the curve) [5],EC50 [6],Substance
300 pM,1000 pM,3000 pM,600 pM,4000 pM,–,M7824
400 pM,800 pM,–,600 pM,–,–,TGF-βR2-Fc (Fc fusion)
–,–,–,–,–,2270 pM,… (atezolizumab) (antibody)
